According to patent US20210361750A1, “Anti-Viral Lactoferrin Facemask” (priority 2020, published 2021):

Experiments:
Vero E6 cells = conditions: control without virus, 10 mg/mL
Vero cells = conditions: 10 mg/mL lactoferrin, incubated up to 72 hours
SARS-CoV-2 [1] = conditions: patients with SARS-CoV-2, after oral administration; cited from earlier work
SARS-CoV-2 [2] = assay: SARS-CoV-2 cytopathic effect inhibition by lactoferrin at various pH levels in Vero E6 cells; type: cell-based, SARS-CoV-2 (strain COV2019 Italy/INM11); conditions: for average neutralizing titer: lactoferrin 10 mg/mL
SARS-CoV-2 [3] = assay: Cyclodextrin testing: antiviral activity against SARS-CoV-2 in Vero E6 cells (CPE); type: cell-based; conditions: pH 7; lactoferrin alone 10 mg/mL, cyclodextrin alone 10 mg/mL, or lactoferrin 5 mg/mL + cyclodextrin 10 mg/mL

B1: lactoferrin (protein, UniProt P02788 20-710, looked up)
Lactotransferrin: GRRRSVQWCAVSQPEATKCFQWQRNMRKVRGPPVSCIKRDSPIQCIQAIAENRADAVTLDGGFIYEAGLAPYKLRPVAAEVYGTERQPRTHYYAVAVVKKGGSFQLNELQGLKSCHTGLRRTAGWNVPIGTLRPFLNWTGPPEPIEAAVARFFSASCVPGADKGQFPNLCRLCAGTGENKCAFSSQEPYFSYSGAFKCLRDGAGDVAFIRESTVFEDLSDEAERDEYELLCPDNTRKPVDKFKDCHLARVPSHAVVARSVNGKEDAIWNLLRQAQEKFGKDKSPKFQLFGSPSGQKDLLFKDSAIGFSRVPPRIDSGLYLGSGYFTAIQNLRKSEEEVAARRARVVWCAVGEQELRKCNQWSGLSEGSVTCSSASTTEDCIALVLKGEADAMSLDGGYVYTAGKCGLVPVLAENYKSQQSSDPDPNCVDRPVEGYLAVAVVRRSDTSLTWNSVKGKKSCHTAVDRTAGWNIPMGLLFNQTGSCKFDEYFSQSCAPGSDPRSNLCALCIGDEQGENKCVPNSNERYYGYTGAFRCLAENAGDVAFVKDVTVLQNTDGNNNEAWAKDLKLADFALLCLDGKRKPVTEARSCHLAMAPNHAVVSRMDKVERLKQVLLHQQAKFGRNGSDCPDKFCLFQSETKNLLFNDNTECLARLHGKTTYEKYLGPQYVAGITNLKKCSTSPLLEACEFLRK
notes: stock solution in water at 10 mg/mL
Vero E6 cells
  cytopathic effect on the cells: neither the lactoferrin alone (10 mg/mL) or the cyclodextrin alone (10 mg/mL) had a cytopathic effect
Vero cells
  cellular cytotoxicity: No cellular cytotoxicity
SARS-CoV-2 [1]
  time to reduced severity and duration of disease: 4 to 5 days
SARS-CoV-2 [2]; cells pre-incubated with lactoferrin 0.313-10 mg/mL for one hour
  inhibitory effect on viral infection in Vero cells: showed an inhibitory effect
SARS-CoV-2 [2]; pH 4
  average neutralizing titer: 452
SARS-CoV-2 [2]; pH 7
  average neutralizing titer: 40
  antiviral efficacy: consistent low efficacy
SARS-CoV-2 [2]; pH 4, 5, and 6
  lactoferrin concentration of maximum inhibitory effect: 5 mg/mL
SARS-CoV-2 [2]; without the pre-incubation step, any pH
  inhibitory effect on viral infection: no inhibitory effect
SARS-CoV-2 [3]
  antiviral activity (cytopathic effect): did not show antiviral activity
